Measurements reported in article PMC1635324 (Nucleic Acids Research, 2006).
Each block holds one binder with its values, some of them ahead of it.

Legend:
[1] = target: T1, ribosomal protein L10 from Methanococcus thermolithotrophicus (Methanococcus thermolithotrophicus, UniProt O52705 1-338); assay: SEC
T1 sequence (looked up): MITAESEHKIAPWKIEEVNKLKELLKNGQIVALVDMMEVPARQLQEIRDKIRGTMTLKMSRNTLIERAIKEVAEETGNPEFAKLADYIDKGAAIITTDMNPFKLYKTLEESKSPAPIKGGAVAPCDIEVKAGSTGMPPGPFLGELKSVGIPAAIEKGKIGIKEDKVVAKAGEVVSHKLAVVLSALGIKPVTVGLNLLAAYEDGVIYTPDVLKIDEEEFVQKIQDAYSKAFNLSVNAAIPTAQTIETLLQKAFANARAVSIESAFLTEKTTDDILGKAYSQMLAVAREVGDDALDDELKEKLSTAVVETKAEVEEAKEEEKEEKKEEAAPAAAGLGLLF

[2] = target: T1, ribosomal protein L10 from …; assay: native gel or EMSA
[3] = target: T2, ribosomal protein L10 from Sulfolobus solfataricus (Sulfolobus solfataricus, UniProt P96039 1-338); assay: SEC
T2 sequence (looked up): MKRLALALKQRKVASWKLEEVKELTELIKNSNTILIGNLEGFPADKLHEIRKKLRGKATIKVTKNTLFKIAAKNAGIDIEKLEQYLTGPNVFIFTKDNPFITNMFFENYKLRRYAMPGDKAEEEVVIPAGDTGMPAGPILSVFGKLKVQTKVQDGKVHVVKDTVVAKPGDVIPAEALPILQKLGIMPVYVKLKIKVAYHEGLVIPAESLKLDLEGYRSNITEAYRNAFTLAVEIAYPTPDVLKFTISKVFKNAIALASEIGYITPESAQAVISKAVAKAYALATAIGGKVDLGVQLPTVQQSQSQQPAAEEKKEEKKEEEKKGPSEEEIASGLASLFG

[4] = target: T2, ribosomal protein L10 from Sulfolobus …; assay: native gel or EMSA
[5] = target: T3, ribosomal protein L10 from Methanococcus vannielii (Methanococcus vannielii, UniProt P15826 1-336); assay: SEC
T3 sequence (looked up): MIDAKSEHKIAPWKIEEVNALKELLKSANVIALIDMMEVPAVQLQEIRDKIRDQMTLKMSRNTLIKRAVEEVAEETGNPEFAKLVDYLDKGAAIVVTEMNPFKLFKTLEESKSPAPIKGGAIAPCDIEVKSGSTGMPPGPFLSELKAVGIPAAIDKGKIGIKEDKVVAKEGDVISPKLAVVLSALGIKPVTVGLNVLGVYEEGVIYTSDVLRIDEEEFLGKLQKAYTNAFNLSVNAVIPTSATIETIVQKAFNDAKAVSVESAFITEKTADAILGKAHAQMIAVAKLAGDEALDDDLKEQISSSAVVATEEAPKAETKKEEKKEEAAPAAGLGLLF

[6] = target: T3, ribosomal protein L10 from …; assay: native gel or EMSA
[7] = target: T4, ribosomal protein L10 from Thermus thermophilus (Thermus thermophilus, UniProt Q8VVE3 1-173); assay: SEC
T4 sequence (looked up): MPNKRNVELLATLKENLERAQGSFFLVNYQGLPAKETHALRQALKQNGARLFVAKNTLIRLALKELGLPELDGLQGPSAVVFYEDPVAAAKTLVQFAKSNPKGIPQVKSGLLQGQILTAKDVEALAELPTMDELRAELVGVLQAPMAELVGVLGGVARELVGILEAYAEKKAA

[8] = target: T5, ribosomal protein L10 from Methanococcus jannaschii (Methanococcus jannaschii, UniProt P54049 1-338); assay: native gel or EMSA
T5 sequence (looked up): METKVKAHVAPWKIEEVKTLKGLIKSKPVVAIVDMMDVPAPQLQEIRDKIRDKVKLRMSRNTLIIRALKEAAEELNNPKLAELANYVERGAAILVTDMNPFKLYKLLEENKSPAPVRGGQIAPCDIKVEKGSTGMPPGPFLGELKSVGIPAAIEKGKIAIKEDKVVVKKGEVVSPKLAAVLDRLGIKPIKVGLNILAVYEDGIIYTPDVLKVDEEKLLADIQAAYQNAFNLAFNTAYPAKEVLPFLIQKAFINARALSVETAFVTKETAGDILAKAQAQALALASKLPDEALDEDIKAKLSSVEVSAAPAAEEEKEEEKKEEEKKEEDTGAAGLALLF

- stoichiometry N [1]: 4 L12 per L10
- stoichiometry N [2]: ~4 L12 per L10
B1: ribosomal protein L12 from Methanococcus thermolithotrophicus (natural protein, UniProt O52706 1-101, looked up)
chain: MEYIYASLLLHSAGKEITEDAVKAVLSAAGVEVEDARVKALVAALEGVDIEEAIEKAAMPVAAAAAPAAAPAEEPKEEKKEEKKEEDTTAAAAAGLGALFG

- stoichiometry N [3]: 4 L12 per L10
- stoichiometry N [4]: ~4 L12 per L10
B2: ribosomal protein L12 from Sulfolobus solfataricus (natural protein, UniProt P96040 1-106, looked up)
chain: MEYIYASLLLHSAKKEISEDALKNVLTAAGISVDEVRLKAVVAALKEVNIDEVLKNAAAMPVAVAAQPQATQAQPAAEEKKEEKKEEEKKGPSEEEIASGLASLFG

- stoichiometry N [5]: 4 L12 per L10
- stoichiometry N [6]: ~4 L12 per L10
B3: ribosomal protein L12 from Methanococcus vannielii (natural protein, UniProt P10623 1-99, looked up)
chain: MEYIYAALLLNSANKEVTEEAVKAVLVAGGIEANDARVKALVAALEGVDIAEAIAKAAIAPVAAAAPVAAAAAPAEVKKEEKKEDTTAAAAAGLGALFM

- stoichiometry N [7]: 6 L12 per L10
B4: ribosomal protein L12 from Thermus thermophilus (natural protein, UniProt Q8VVE2 1-125, looked up)
chain: MALDIERIKEELSQATVLELKQLIDALKEAWGVTAAAPVAVAAAPAAGAAAAPAEEKTEFDVILKEAGAKKLEVIKELRAITGLGLKEAKDLAEKGGPVKEGVSKQEAEEIKKKLEAVGAVVELK

- stoichiometry N [8]: ~4 L12 per L10
B5: ribosomal protein L12 from Methanococcus jannaschii (natural protein, UniProt P54048 1-102, looked up)
chain: MEYIYAALLLHSAGKEITEDAIKAVLSAAGVEVDDARVKALVAGLEGVDIEEAIANAAMPVAAAPAAAAPAAAAEEKKEEEKKEEKKEEDTAAVAGLAALFG
